Measured values from article PMC12774657, “Multimodal bHLH-PAS DNA binding controls specificity and drives obesity”.

Molecular target: SIM1 bHLH-PASA-PASB;ARNT2 bHLH-PASA-PASB (;, UniProt P81133;Q9HBZ2 1-348;1-455, |)
Test: EMSA; preferred over HIF2a probe; EMSA: 10 nM probe, 20 mM Tris pH 8.0, 250 mM NaCl, 16 ug/ml salmon sperm ssDNA, 30 ug/ml BSA, 1.25 mM MgCl2, 6% glycerol, 10 mM DTT, room temperature 30 min, 5-7% native PAGE
Details: protein: recombinant;recombinant; tags: 6xHis-TEV, tag removed;untagged; copies: 1;1; label: FAM (upper strand); blunt

Sequence of SIM1 bHLH-PASA-PASB;ARNT2 bHLH-PASA-PASB (P81133 1-348, chain 1 of 2): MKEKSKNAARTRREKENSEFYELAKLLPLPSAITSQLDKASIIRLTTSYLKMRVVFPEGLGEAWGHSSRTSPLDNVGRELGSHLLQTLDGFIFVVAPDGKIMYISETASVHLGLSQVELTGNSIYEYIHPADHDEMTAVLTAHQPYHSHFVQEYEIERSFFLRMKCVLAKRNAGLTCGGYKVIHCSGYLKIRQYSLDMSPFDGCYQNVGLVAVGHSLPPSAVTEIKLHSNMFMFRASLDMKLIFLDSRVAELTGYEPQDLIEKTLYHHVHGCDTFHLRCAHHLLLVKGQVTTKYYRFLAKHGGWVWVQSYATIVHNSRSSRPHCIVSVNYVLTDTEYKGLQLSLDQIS
Sequence of SIM1 bHLH-PASA-PASB;ARNT2 bHLH-PASA-PASB (Q9HBZ2 1-455, chain 2 of 2): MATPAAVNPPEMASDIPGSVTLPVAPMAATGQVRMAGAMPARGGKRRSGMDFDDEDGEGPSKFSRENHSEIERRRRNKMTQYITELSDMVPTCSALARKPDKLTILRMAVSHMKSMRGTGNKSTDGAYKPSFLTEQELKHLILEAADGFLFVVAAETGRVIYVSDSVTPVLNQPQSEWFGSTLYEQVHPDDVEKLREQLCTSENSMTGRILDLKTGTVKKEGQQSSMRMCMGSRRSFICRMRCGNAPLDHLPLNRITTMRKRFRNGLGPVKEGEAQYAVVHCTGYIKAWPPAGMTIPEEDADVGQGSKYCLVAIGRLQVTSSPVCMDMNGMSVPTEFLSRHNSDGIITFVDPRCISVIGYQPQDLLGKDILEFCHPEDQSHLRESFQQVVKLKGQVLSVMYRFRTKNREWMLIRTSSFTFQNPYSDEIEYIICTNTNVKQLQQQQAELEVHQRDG

B1: SRE 22mer (top SIM1/ARNT2 probe) (dsDNA)
DNA 1: AAAAGGTACGTGACCAAAAAGA
DNA 2: TCTTTTTGGTCACGTACCTTTT
  binding result: binds
